In patent US20240181013A1, “POEGMA COPOLYMER CONJUGATES AND METHODS OF TREATING DISEASES” (Duke University, priority 2021, published 2024):

What was measured:
C57BL6/J mice = settings: mouse, in vivo
Description: (§1) Immunogenicity. Immunogenicity of POEGMA was tested and compared to that of PEG in three sets of immunogenicity experiments. […] In the second set of experiments, mice were injected with OVA (Invivogen), OVA-PEG10K, and OVA-POEGMA10K at 9.6 nmol kg^−1. In the final set, OVA, OVA-PEG10K, and OVA-POEGMA10K were emulsified in an equal volume of sterile and endotoxin-free adjuvant (Invivogen) and then administrated into 7-week-old C57BL/6J mice (n=10) at 9.6 nmol kg^−1. Complete Freund's adjuvant (CFA) was used for the first injection, while incomplete Freund's adjuvant (IFA) was the adjuvant of choice for the rest of the injections. In all experimental sets, an equal injection volume of PBS (or PBS emulsified in CFA or IFA) was used as a negative control. All drugs were administrated into mice every 17 days three times (Day 0, 17, and 34). […]
(§2) Analysis of anti-drug antibodies (ADA), ADAs were analyzed using a Luminex multiplex immunoassay (LMI) according to the manufacturer's instructions with minor modifications. […]
(§3) In a typical LMI assay, 50 μl of the diluted plasma samples (n=3) were transferred to a black, round-bottom 96-well-plate (Corning). […] Finally, magnetic beads were suspended in 100 μl of assay buffer, followed by measuring mean fluorescence signal intensity (MFI) using MAGPIX (Luminex) instrument. […]

C57BL/6J mice = settings: mouse, in vivo, sc
Description: as §1, §2, §3

| Molecule | PEG-specific IgM titer, higher than with exendin-PEG (C57BL6/J mice) [fold] | anti-POEGMA response with Freund's adjuvant (C57BL/6J mice) |
| --- | --- | --- |
| OVA-PEG: ovalbumin conjugated to ~10 kDa PEG via activated carbonate-amine conjugation (conjugate, UniProt P01012 2-386, looked up, 10 kDa PEG conjugate) Ovalbumin: GSIGAASMEFCFDVFKELKVHHANENIFYCPIAIMSALAMVYLGAKDSTRTQINKVVRFDKLPGFGDSIEAQCGTSVNVHSSLRDILNQITKPNDVYSFSLASRLYAEERYPILPEYLQCVKELYRGGLEPINFQTAADQARELINSWVESQTNGIIRNVLQPSSVDSQTAMVLVNAIVFKGLWEKAFKDEDTQAMPFRVTEQESKPVQMMYQIGLFRVASMASEKMKILELPFASGTMSMLVLLPDEVSGLEQLESIINFEKLTEWTSSNVMEERKIKVYLPRMKMEEKYNLTSVLMAMGITDVFSSSANLSGISSAESLKISQAVHAAHAEINEAGREVVGSAEAGVDAASVSEEFRADHPFLFCIKHIATNAVLFFGRCVSP | ~60 | – |
| OVA-POEGMA: ovalbumin conjugated to ~10 kDa EG3 POEGMA via activated carbonate-amine conjugation (conjugate, UniProt P01012 2-386, looked up, 10 kDa EG3 POEGMA conjugate) Ovalbumin: GSIGAASMEFCFDVFKELKVHHANENIFYCPIAIMSALAMVYLGAKDSTRTQINKVVRFDKLPGFGDSIEAQCGTSVNVHSSLRDILNQITKPNDVYSFSLASRLYAEERYPILPEYLQCVKELYRGGLEPINFQTAADQARELINSWVESQTNGIIRNVLQPSSVDSQTAMVLVNAIVFKGLWEKAFKDEDTQAMPFRVTEQESKPVQMMYQIGLFRVASMASEKMKILELPFASGTMSMLVLLPDEVSGLEQLESIINFEKLTEWTSSNVMEERKIKVYLPRMKMEEKYNLTSVLMAMGITDVFSSSANLSGISSAESLKISQAVHAAHAEINEAGREVVGSAEAGVDAASVSEEFRADHPFLFCIKHIATNAVLFFGRCVSP | – | only a weak IgM response disappearing after the first injection |
